The values below come from article PMC6969062, “Ultrasensitive nano-aptasensor for monitoring retinol binding protein 4 as a biomarker for diabetes prognosis at early stages”.

This series has as its target RBP4 (retinol binding protein 4) (Homo sapiens, UniProt P02753 19-201). Put plainly: aptamer-antibody sandwich chemiluminescence on streptavidin wells; 2 mM Mg2+, 1 mM Ca2+; linear range 0.001-2 ng/mL, LOD 951 fg/mL; Binding buffer 20 mM Tris-HCl pH 7.6, 100 mM NaCl, 2 mM MgCl2, 5 mM KCl, 1 mM CaCl2, 0.02% Tween-20; RBP4 1 h (temperature not stated), reporter antibody step 1.

B1: RBA (RBP4 aptamer), biotin-T10 (ssDNA)
DNA: TTTTTTTTTTATACCAGCTTATTCAATTACAGTAGTGAGGGGTCCGTCGTGGGGTAGTTGGGTCGTGGAGATAGTAAGTGCAATCT
Take B1: the binding result was “binds”.
